Experimental data from the supplement of paper PMC12764529.
± gives the half width of the 95% confidence interval.

Assay: folding stability dG unfold from trypsin proteolysis; higher = more stable
How it was run: (§1)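 Designed mini-proteins with no cysteine and under 80 residues were kept only if AlphaFold2 dimer inter-PAE was above 15. In a PA-tagged cDNA display construct, they were digested with trypsin and chymotrypsin and then sequenced. K50 was inferred by Bayesian fitting of counts, and unfolding free energy was derived per protease or combined against a sequence-predicted unfolded-state K50 and a shared folded-state K50.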

Sequence	folding stability dG unfold
SMKITIVNKNGEKKEIEVTAKDGKKYKITVFKDKELVIKVEETTPDGKKKPVKVIKAKSLEEALEALKKASA [r9_942_TrROS_Hall]	2.17 ± 0.14 kcal/mol
SAGGSAGGWKIIEVDPKKGVVMIEMDPEEGNWYVRVPNGPIQRFDSPEEIEEKFGFPVEIYPLPSAGGSAGG [r6_753_TrROS]	1.3 ± 0.098 kcal/mol
SAGGSAGGSAGMTLEIEVDPDNKVIELKIYIGGKPVEMTIVVTPNSGYIRIPDGGWIPIESAGGSAGGSAGG [r11_395_TrROS]	2.1 ± 0.053 kcal/mol
SAGGSAGGSAGMNITITFPDGTVVEIPDVPPEYADVTPEKLKEEVLKKYPNVNVKVSPNGSAGGSAGGSAGG [r17_42_JUSTAS]	0.302 ± 0.055 kcal/mol
SAGGSAGGSADWQKLEYPFPPGMPLDNIKEELRDLFPGKKPTIEIDKIEPHNGQYWIKITVKSAGGSAGGSA [r18_360_TrROS]	0.42 ± 0.047 kcal/mol
SMPKIEVKIEYDEETGEITVEIRVPETEEEALEALRKLAEEAGLEVEVEEVEIEEVDGELVIRVKVRIKPSA [r9_164_TrROS_Hall]	3.57 ± 0.21 kcal/mol
SQNGGPKRKVTITIIIVIPPGQRNPDGKPRPSVEELARYLQKELQEQFPGNKDVKIDITIIPLGDPEQIKSA [r9_329_TrROS]	2.06 ± 0.069 kcal/mol
SAGPGWIMIRVKIKMRKWKDGKPVRRPIEIPIMAPADGDPEAARRKAEELAEFLAQMYGMEIEDVEIFPSAG [r5_497_TrROS]	3.07 ± 0.092 kcal/mol
SAGKPKIIEEKTITVPPGATLTIEFPPEVKRIEIINLDTGKTETIEIKPGEKLTFTFPPGSTVRVRVLSAGG [r19_118_TrROS_Hall]	2.38 ± 0.029 kcal/mol
SAGGKILIYPGSIEEAIEALKANPNTTVLVISPDGTLIEITVEELGPGPFKIDIKVIPLLPPLKPDEASAGG [r13_56_TrMRF]	1.6 ± 0.043 kcal/mol
SAGGEEELRKAAEIAAAPPLEIEPVLETFTVETEEGPRVVLVISPVVRFPGDGVLIPNPVLVIPAEELSAGG [r19_11_TrMRF]	0.861 ± 0.052 kcal/mol
SAGMMKFPPGAKIKIVNKETGEEKEITLPEGAEVEFDEETGEVHIRVKVDGKEYRFTFKNGEIVEVEEVSAG [r5_22_TrROS_Hall]	3.23 ± 0.26 kcal/mol
SAGGSAGGSAGGMREVIRRPEASGEVTVEPLPEDERRPVDFGSDGVVLWREGDEVVVEPSAGGSAGGSAGGS [r10_817_JUSTAS]	0.00105 ± 0.087 kcal/mol
PKIVEILDAKRTPDGSLVIKIKIEPPEPNVKIKVIVKTPNSFKVYEIDPTKTTLEITIPGNVTNPKIEVFGS [r1_428_TrMRF]	2.51 ± 0.17 kcal/mol
SAGGSMTITITNEDGSTYEITVEEENGKLRITITVDGKTVEIEFDKETGKITIRYNGKTFTLTIKPSAGGSA [r2_194_TrROS_Hall]	3.85 ± 0.19 kcal/mol
SAGGSAGGSAGKPVLKLTVTLPNGLTVTVTINPDGEITVEIRPLPPPPPPVRTYSDEELKSAGGSAGGSAGG [r11_1015_TrROS_Hall]	2.29 ± 0.19 kcal/mol

Sequence	folding stability dG unfold
SAGGMVDIYFPDAVIDDSGTKEDILEQLEKVTGKPIPEELREEILKGKTVEEIVELLKKRGFDVRVDSAGGS [r16_601_TrMRF]	2.8 ± 0.12 kcal/mol
SAGGSAGGSGITPAAKKIAAEIEKKYPNEKIKVEEELLPNGYLKIKVTTDNGKKYEIIIKVGGSAGGSAGGS [r20_210_TrMRF]	2.51 ± 0.12 kcal/mol
SAGGSAGGSAMVILTPDGYLKVIKSITVEEALDPETDEPVLDVKAEVEVIPLPSLDDPAFKESAGGSAGGSA [r18_6_TrMRF]	0.251 ± 0.076 kcal/mol
SAGGMLIIRIEIEIEKNGKKEKKEILIVAKTEEEAKKAAEKIAKEKGLKIKKIEILPFKSLEELKKALSAGG [r13_949_TrROS_Hall]	2.12 ± 0.061 kcal/mol
SAGGKTITIKVKLENGEEKTIEVKVDEVKIEKKNGKLVITFKDGKKITIPLDKIEDMSEDEIKKLLEKSAGG [r13_925_TrROS_Hall]	2.72 ± 0.15 kcal/mol
SAGGMKIIPITPEMIEEAKKLGLTPEDEAFEFEVTLPNGEVLRGTLIIPPDNPDIPVEAEPYLNLDKSAGGS [r16_497_TrMRF]	0.555 ± 0.1 kcal/mol
SAGGSAGGSAGEEEELPLVIRVRFKGPEEVEIEIEAESLEDALAAIESLPDIEEIEILPRSAGGSAGGSAGG [r11_587_TrROS_Hall]	0.632 ± 0.034 kcal/mol
SDPILEILKDAFQEFGIPVQVSIEPDPDGKRVIPIRIMSPKDMDENGMKMQEQTFPIKVNGKKWRVEISWSA [r9_489_TrROS]	1.45 ± 0.084 kcal/mol
SAGRLTTELGDVKAEVFRIPNLNLSLVVYEYPTSVRTLLATEHGDTVTIHPLTETPLPLPPLSDLKSLSAGG [r19_328_TrMRF]	0.0381 ± 0.068 kcal/mol
SAGGSAGGSAMKKVTITLLDPRNGKEHTVTLPADITEEEAKAAAEAVAAERGWEVLSIEFEPSAGGSAGGSA [r18_322_JUSTAS]	3.61 ± 0.072 kcal/mol
SAGGSAGGSPGPGTEVEVRYRHPATGRWYPGVAVFTPDGSIRVYFPALGTTVTVPPHTVEPVPSAGGSAGGS [r12_726_TrMRF]	1.98 ± 0.056 kcal/mol
SAGGKPKKTILIPLIVPPGKPESAIKALAEFLEAKGYELERIEPVPVGDRLRLVAIFRKPDGTEIKVGSAGG [r13_421_TrMRF]	1.66 ± 0.037 kcal/mol
SAGGSAGGNPVRYRVTITVTSPTGGSPVIELELDDPAELAEVEALAAELAAAPVTTTVTVEPIGSAGGSAGG [r6_743_JUSTAS]	1.02 ± 0.049 kcal/mol
SAGGSAGGSAGSVTITRDYPTPDGTRTTVTITFPSLERSPSVKYKLVSVSPDGNYVLSPESAGGSAGGSAGG [r11_733_JUSTAS]	2.11 ± 0.18 kcal/mol
SAGGSAGGSAGGWIMVPIEIKVDLKWGPNGQHEIETVPILIIIRIPPPPVPEEQAEKNNGSAGGSAGGSAGG [r11_318_TrROS]	2.89 ± 0.15 kcal/mol

Assay: folding stability dG unfold from chymotrypsin proteolysis; higher = more stable
How it was run: as §1

Sequence	folding stability dG unfold
SMKITIVNKNGEKKEIEVTAKDGKKYKITVFKDKELVIKVEETTPDGKKKPVKVIKAKSLEEALEALKKASA [r9_942_TrROS_Hall]	2.83 ± 0.057 kcal/mol
SAGGSAGGWKIIEVDPKKGVVMIEMDPEEGNWYVRVPNGPIQRFDSPEEIEEKFGFPVEIYPLPSAGGSAGG [r6_753_TrROS]	0.816 ± 0.092 kcal/mol
SAGGSAGGSAGMTLEIEVDPDNKVIELKIYIGGKPVEMTIVVTPNSGYIRIPDGGWIPIESAGGSAGGSAGG [r11_395_TrROS]	3.37 ± 0.065 kcal/mol
SAGGSAGGSAGMNITITFPDGTVVEIPDVPPEYADVTPEKLKEEVLKKYPNVNVKVSPNGSAGGSAGGSAGG [r17_42_JUSTAS]	0.127 ± 0.038 kcal/mol
SAGGSAGGSADWQKLEYPFPPGMPLDNIKEELRDLFPGKKPTIEIDKIEPHNGQYWIKITVKSAGGSAGGSA [r18_360_TrROS]	0.0785 ± 0.15 kcal/mol
SMPKIEVKIEYDEETGEITVEIRVPETEEEALEALRKLAEEAGLEVEVEEVEIEEVDGELVIRVKVRIKPSA [r9_164_TrROS_Hall]	2.44 ± 0.16 kcal/mol
SQNGGPKRKVTITIIIVIPPGQRNPDGKPRPSVEELARYLQKELQEQFPGNKDVKIDITIIPLGDPEQIKSA [r9_329_TrROS]	2.86 ± 0.15 kcal/mol
SAGPGWIMIRVKIKMRKWKDGKPVRRPIEIPIMAPADGDPEAARRKAEELAEFLAQMYGMEIEDVEIFPSAG [r5_497_TrROS]	3.74 ± 0.057 kcal/mol
SAGKPKIIEEKTITVPPGATLTIEFPPEVKRIEIINLDTGKTETIEIKPGEKLTFTFPPGSTVRVRVLSAGG [r19_118_TrROS_Hall]	4.06 ± 0.046 kcal/mol
SAGGKILIYPGSIEEAIEALKANPNTTVLVISPDGTLIEITVEELGPGPFKIDIKVIPLLPPLKPDEASAGG [r13_56_TrMRF]	2.212 ± 0.021 kcal/mol
SAGGEEELRKAAEIAAAPPLEIEPVLETFTVETEEGPRVVLVISPVVRFPGDGVLIPNPVLVIPAEELSAGG [r19_11_TrMRF]	0.301 ± 0.11 kcal/mol
SAGMMKFPPGAKIKIVNKETGEEKEITLPEGAEVEFDEETGEVHIRVKVDGKEYRFTFKNGEIVEVEEVSAG [r5_22_TrROS_Hall]	4.3 ± 0.066 kcal/mol
SAGGSAGGSAGGMREVIRRPEASGEVTVEPLPEDERRPVDFGSDGVVLWREGDEVVVEPSAGGSAGGSAGGS [r10_817_JUSTAS]	0.72 ± 0.043 kcal/mol
PKIVEILDAKRTPDGSLVIKIKIEPPEPNVKIKVIVKTPNSFKVYEIDPTKTTLEITIPGNVTNPKIEVFGS [r1_428_TrMRF]	2.65 ± 0.14 kcal/mol
SAGGSMTITITNEDGSTYEITVEEENGKLRITITVDGKTVEIEFDKETGKITIRYNGKTFTLTIKPSAGGSA [r2_194_TrROS_Hall]	5.33 ± 0.13 kcal/mol
